Results reported in patent US7432419B2 (priority 2004, dated 2008).

B1: Elastase: Human Neutrophil Elastase (Sigma), used as surface recognition domain component (protein, listed as Homo sapiens)
chain: EIVGGRRARPHAWPFMVSLQLRGGHFCGATLIAPNFVMSAAHCVANVNVRAVRVVLGAHNLSRREPTRQVFAVQRIFENGYDPVNLLNDIVILQLNGSATINANVQVAQLPAQGRRLGNGVQCLAMGWGLLGRNRGIASVLQELNVTVVTSLCRRSNVCTLVRGRQAGVCFGDSGSPLVCNGLIHGIASFVRGGCASGLYPDAFAPVAQFVNWIDSIIQ
modifications: truncated neutrophil elastase protein
notes: Human Neutrophil Elastase (Sigma), used as surface recognition domain component

Key:
[1] = system: Xylella fastidiosa (Xf strain "Stags Leap"); type: cell-based
E. coli strain HB 101 = type: cell-based
[2] = system: Xf outer-membrane protein mopB; type: biochemical, Xylella fastidiosa

Row | Molecule | bacterial growth inhibition (killing) of Xf [1] | bacterial growth inhibition (killing) of E. coli (E. coli strain HB 101) | digestion of purified mopB [2] | effect of elastase on Cecropin B-stimulated lysis of Xf cells [1]
1 | Cecropin B [reference compound] | some growth inhibition | complete growth inhibition | – | –
2 | B1 | insufficient to inhibit bacterial growth | insufficient to inhibit bacterial growth | at least partially digested | greatly enhances
